Like-named read-outs stand apart in the source and are kept apart here.
T1: IL-36R on human skin squamous cell line A431 (human, UniProt Q9HB29 20-575)
T1 sequence (looked up): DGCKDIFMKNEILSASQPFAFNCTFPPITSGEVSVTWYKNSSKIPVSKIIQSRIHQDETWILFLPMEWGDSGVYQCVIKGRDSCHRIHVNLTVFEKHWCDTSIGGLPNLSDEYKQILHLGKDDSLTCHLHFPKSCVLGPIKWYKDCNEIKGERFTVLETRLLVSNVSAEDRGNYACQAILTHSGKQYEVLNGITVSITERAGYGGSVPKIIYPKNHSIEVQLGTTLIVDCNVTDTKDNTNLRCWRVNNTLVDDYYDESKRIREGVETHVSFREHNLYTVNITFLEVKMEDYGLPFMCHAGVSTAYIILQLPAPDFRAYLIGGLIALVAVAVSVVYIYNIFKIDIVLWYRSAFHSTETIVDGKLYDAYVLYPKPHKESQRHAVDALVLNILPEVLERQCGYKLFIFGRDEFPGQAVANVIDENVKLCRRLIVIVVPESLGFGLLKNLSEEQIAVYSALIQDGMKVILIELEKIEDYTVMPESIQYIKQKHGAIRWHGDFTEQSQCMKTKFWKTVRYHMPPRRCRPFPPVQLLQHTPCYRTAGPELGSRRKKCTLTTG

T2: human IL-36R full-length protein stably expressed on CHO-K1 cells (human, UniProt Q9HB29 20-575)
T2 construct: FlpIn CHO-K1 line expressing the full-length protein; also called human IL-36R on the surface of CHO-K1 cells; CHO-K1 cells overexpressing human IL-36R
T2 sequence: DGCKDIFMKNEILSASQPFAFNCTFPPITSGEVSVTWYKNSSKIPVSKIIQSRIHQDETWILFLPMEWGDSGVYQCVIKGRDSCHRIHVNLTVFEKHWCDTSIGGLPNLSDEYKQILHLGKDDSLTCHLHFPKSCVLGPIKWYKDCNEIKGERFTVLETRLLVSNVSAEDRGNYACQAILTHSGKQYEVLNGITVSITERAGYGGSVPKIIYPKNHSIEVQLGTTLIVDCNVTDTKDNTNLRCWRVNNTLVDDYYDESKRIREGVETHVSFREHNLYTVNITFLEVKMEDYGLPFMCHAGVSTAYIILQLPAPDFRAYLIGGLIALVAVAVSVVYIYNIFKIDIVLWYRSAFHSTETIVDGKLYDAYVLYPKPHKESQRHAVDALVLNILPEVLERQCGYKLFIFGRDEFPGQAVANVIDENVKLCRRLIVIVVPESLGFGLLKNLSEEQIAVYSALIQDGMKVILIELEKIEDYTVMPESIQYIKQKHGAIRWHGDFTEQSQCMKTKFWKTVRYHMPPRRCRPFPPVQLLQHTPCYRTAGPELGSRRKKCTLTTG

T3: Human IL-36R protein (His + Avi Tag), Kactus IL1-HM4L2 (human, UniProt Q9HB29 20-335)
T3 construct: Bought protein; also called human IL-36R antigen protein; Human IL-36R antigen
T3 sequence: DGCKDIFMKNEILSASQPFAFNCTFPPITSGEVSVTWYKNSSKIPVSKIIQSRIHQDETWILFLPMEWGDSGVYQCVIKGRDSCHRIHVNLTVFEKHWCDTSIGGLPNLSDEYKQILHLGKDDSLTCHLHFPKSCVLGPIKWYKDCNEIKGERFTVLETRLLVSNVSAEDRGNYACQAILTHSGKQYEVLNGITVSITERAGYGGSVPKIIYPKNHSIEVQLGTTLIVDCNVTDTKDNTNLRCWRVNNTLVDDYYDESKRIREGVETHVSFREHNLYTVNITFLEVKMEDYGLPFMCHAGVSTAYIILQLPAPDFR

T4: human IL-23 protein (ACROBiosystems, ILB-H52W5) (human, UniProt Q9NPF7 20-189; P29460 23-328)
T4 construct: Bought protein; construct not described; also called Human IL-23 antigen; human IL-23 antigen protein
T4 sequence (looked up) 1: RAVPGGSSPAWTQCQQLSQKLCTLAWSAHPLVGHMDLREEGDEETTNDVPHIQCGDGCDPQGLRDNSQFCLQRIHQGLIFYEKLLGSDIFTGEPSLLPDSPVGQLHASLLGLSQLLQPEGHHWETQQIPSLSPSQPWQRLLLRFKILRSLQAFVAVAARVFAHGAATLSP
T4 sequence (looked up) 2: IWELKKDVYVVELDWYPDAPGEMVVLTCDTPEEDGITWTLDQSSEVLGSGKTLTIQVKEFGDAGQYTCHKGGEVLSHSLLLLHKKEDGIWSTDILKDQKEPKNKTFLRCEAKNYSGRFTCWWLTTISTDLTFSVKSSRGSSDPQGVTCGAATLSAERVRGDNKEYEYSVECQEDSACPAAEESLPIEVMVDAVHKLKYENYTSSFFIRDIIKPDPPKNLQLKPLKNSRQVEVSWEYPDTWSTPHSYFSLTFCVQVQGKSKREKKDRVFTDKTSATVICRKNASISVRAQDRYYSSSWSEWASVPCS

T5: human IL-23 protein (Sino Biological, CT048-H08H) (human, UniProt Q9NPF7 20-189; P29460 23-328)
T5 construct: Detected with Anti-His-HRP in the ELISA, so it carries a His tag
T5 sequence (looked up) 1: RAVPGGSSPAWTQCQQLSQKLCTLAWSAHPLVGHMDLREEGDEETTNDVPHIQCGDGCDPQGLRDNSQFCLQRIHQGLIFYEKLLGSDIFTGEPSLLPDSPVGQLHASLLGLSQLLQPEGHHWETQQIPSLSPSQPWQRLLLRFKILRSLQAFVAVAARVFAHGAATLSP
T5 sequence (looked up) 2: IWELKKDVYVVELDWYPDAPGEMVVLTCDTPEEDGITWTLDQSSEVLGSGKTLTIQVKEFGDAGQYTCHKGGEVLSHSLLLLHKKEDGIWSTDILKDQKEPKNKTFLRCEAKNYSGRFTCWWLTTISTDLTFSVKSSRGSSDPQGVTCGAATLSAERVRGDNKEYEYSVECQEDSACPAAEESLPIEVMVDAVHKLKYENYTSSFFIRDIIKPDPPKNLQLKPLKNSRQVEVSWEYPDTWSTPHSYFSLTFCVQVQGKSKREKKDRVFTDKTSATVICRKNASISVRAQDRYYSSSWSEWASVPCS

T6: IL-23 (R&D Systems, 1290-IL-010) (UniProt Q9NPF7 20-189; P29460 23-328)
T6 sequence (looked up) 1: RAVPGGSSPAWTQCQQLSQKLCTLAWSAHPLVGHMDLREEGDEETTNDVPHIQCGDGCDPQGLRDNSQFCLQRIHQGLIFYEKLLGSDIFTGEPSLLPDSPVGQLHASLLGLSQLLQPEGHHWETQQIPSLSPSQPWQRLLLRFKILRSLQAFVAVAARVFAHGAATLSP
T6 sequence (looked up) 2: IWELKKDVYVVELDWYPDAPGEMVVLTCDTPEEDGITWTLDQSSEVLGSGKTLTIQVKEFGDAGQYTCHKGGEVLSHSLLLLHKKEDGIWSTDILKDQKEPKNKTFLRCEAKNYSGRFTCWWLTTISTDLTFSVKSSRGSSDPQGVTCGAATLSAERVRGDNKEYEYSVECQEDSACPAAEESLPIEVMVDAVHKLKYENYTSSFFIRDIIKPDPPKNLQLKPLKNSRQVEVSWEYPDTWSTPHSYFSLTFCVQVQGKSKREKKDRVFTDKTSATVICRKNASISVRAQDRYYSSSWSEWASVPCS


How the values were obtained:
[1] = molecular target: T1, IL-36R on human skin squamous cell line …; assay: cell-based or functional assay
[2] = molecular target: T1, IL-36R on human skin squamous cell line …; assay: cell-based or functional assay; remark: listed apart in the source
[3] = molecular target: T2, human IL-36R full-length protein stably …; assay: FACS, CHO-K1 cells overexpressing human IL-36R
[4] = molecular target: T2, human IL-36R full-length protein stably …; assay: FACS, CHO-K1 cells overexpressing human IL-36R; remark: listed apart in the source
[5] = molecular target: T2, human IL-36R full-length protein stably …; assay: FACS, CHO-K1 cells overexpressing human IL-36R; remark: listed apart in the source
[6] = molecular target: T3, Human IL-36R protein (His + Avi Tag), …; assay: SPR (Biacore 8K), antibody captured by anti-human IgG Fc, IL-36R as analyte
[7] = molecular target: T4, human IL-23 protein (ACROBiosystems, …); assay: ELISA, human IL-23 coated
[8] = molecular target: T5, human IL-23 protein (Sino Biological, …); assay: SPR (Biacore 8K), antibody captured on Protein A chip, IL-23 as analyte
[9] = molecular target: T5, human IL-23 protein (Sino Biological, …); assay: competition ELISA, IL-23R coated, biotinylated IL-23 preincubated with antibody
[10] = molecular target: T5, human IL-23 protein (Sino Biological, …); assay: cell-based or functional assay
[11] = molecular target: T6, IL-23 (R&D Systems, 1290-IL-010); assay: cell-based or functional assay
[12] = molecular target: T5, human IL-23 protein (Sino Biological, …); assay: ELISA, test sample coated, His-tagged IL-23 in solution

| IL-8 secretion (A431), IL-36α, IC50 [1] [nM] | IL-8 secretion (A431), IL-36β, IC50 [1] [nM] | IL-8 secretion (A431), IL-36γ, IC50 [1] [nM] | IL-36α-induced A431 IL-8 secretion IC50 [2] [nM] | EC50 [3] [nM] | Maximum MFI [3] [MFI] | EC50 [4] [nM] | Maximum MFI [4] [MFI] | EC50 [5] [nM] | Maximum MFI [5] [MFI] | Kd [6] [nM] | koff [6] [s⁻¹] | kon [6] [M⁻¹ s⁻¹] | Kd [8] [nM] | IC50 [9] [nM] | Binder | also measured |
| --- | --- | --- | --- | --- | --- | --- | --- | --- | --- | --- | --- | --- | --- | --- | --- | --- |
| 0.64 | 0.26 | 0.06 | 0.15 | 0.37 | 10900 | 0.51 | 11200 | 0.64 | 10600 | 6.4 | 0.000364 | 56800 |  |  | H4H14706P2 (anti-human IL-36R antibody from Regeneron) (antibody, human IgG4 S228P, kappa, V domains shown, Control, self-expressed according to WO2020018503A2) VH: EVQLVESGGGLVQPGRSLRLSCTASGFTFDDYAIHWVRQSPGKGLEWVSVISWNSDVIGYADSVKGRFTISRDNAKNSLYLQMNSLRAEDTALYYCAKGYNWNFFDYWGQGTLVTVSS VL: EIVLTQSPATLSLSPGERATLSCRASQSVSSYLAWYQQKPGQAPRLLIYNAANRATDIPARFSGSGSGTDFTLTISSLEPEDFAVYYCQQRSNWPLTFGGGTKVEIKR |  |
|  |  |  |  |  |  |  |  |  |  |  |  |  | 0.0651 | 0.61 | Risankizumab (anti-IL-23 antibody control molecule) (antibody, human IgG1, kappa, L234A L235A, V domains shown) VH: QVQLVQSGAEVKKPGSSVKVSCKASGYTFTDQTIHWMRQAPGQGLEWIGYIYPRDDSPKYNENFKGKVTITADKSTSTAYMELSSLRSEDTAVYYCAIPDRSGYAWFIYWGQGTLVTVSS VL: DIQMTQSPSSLSASVGDRVTITCKASRDVAIAVAWYQQKPGKVPKLLIYWASTRHTGVPSRFSGSGSRTDFTLTISSLQPEDVADYFCHQYSSYPFTFGSGTKLEIKR | EC50 [7]: 4.72 nM; koff [8]: 4.91e-05 s⁻¹; kon [8]: 754000 M⁻¹ s⁻¹ |
| 0.26 | 0.1 | 0.04 | 0.06 | 0.51 | 13400 | 0.51 | 14200 | 0.75 | 12900 | 7.16 | 9.54e-05 | 13300 |  |  | BI655130 (anti-human IL-36R antibody from Boehringer Ingelheim) (antibody, human IgG1, kappa, L234A L235A, V domains shown, Control, self-expressed according to WO2013074569A1; also called B1655130) VH: QVQLVQSGAEVKKPGASVKVSCKASGYSFTSSWIHWVKQAPGQGLEWMGEINPGNVRTNYNENFRNKVTMTVDTSISTAYMELSRLRSDDTAVYYCTVVFYGEPYFPYWGQGTLVTVSS VL: QIVLTQSPGTLSLSPGERATMTCTASSSVSSSYFHWYQQKPGQAPRLWIYRTSRLASGVPDRFSGSGSGTDFTLTISRLEPEDAATYYCHQFHRSPLTFGAGTKLEIKR |  |
|  |  |  |  |  |  |  |  |  |  |  |  |  | 0.0149 | 0.488 | Hu29-24 (humanized anti-IL-23 antibody) (antibody, human IgG1, kappa, L234A L235A) heavy: not shown light: DIVLTQSPDSLAVSLGQRATINCRASESVDYYGISSMHWFQQKPGQPPKLLIYRASNLESGIPARFSGSGSRTDFTLTISSLQAEDVAVYYCQQANKDPYTFGGGTKVEIKRTVAAPSVFIFPPSDEQLKSGTASVVCLLNNFYPREAKVQWKVDNALQSGNSQESVTEQDSKDSTYSLSSTLTLSKADYEKHKVYACEVTHQGLSSPVTKSFNRGEC | Activity in inhibiting proliferation of BaF3-IL-23R cells (IC50, nM) [10]: 0.178 nM; IC50 for inhibiting IL-17 secretion [11]: 0.0289 nM; EC50 [12]: 1.22 nM |
